Data from publication PMC3277711 (Cell, 2012).
One block for each binder: values may come before it.

Columns and labels:
[1] = biological target: the molecule itself; assay: SEC
[2] = biological target: chicken CENP-T-W complex (CENP-T histone fold with CENP-W) (chicken) (UniProt F1NPG5); assay: SEC
[3] = biological target: the molecule itself; assay: crystal structure

- stoichiometry N (CENP-S-X dimer per CENP-T-W dimer) [2]: 1
B1: chicken CENP-S-X complex (full-length CENP-S with CENP-X) (complex)
chain 1: MEAAGGEQRELLIQRLRAAVHYTTGCLCQDVAEDKGVLFSKQTVAAISEITFRQCENFARDLEMFARHAKRSTITSEDVKLLARRSNSLLKYITQKSDELASSNMEQKEKKKKKSSAAKGRKTEENETPVTESEDSNMA
chain 2: MEEREGGFRKETVERLLRLHFRDGRTRVNGDALLLMAELLKVFVREAAARAARQAQAEDLEKVDIEHVEKVLPQLLLDFVV
- stoichiometry N [1]: 2 CENP-S-X heterodimers in the oligomer

B2: chicken CENP-SΔC-X complex (complex)
chain 1: MEAAGGEQRELLIQRLRAAVHYTTGCLCQDVAEDKGVLFSKQTVAAISEITFRQCENFARDLEMFARHAKRSTITSEDVKLLARRSNSLLKYITQKSDELASSNME
chain 2: B1 chain 2
- stoichiometry N [3]: 2 CENP-S-X heterodimers in the oligomer
